The record followed here is PMC10420310, “The Complex Proteolipidic Behavior of the SARS-CoV-2 Envelope Protein Channel: Weak Selectivity and Heterogeneous Oligomerization” (International Journal of Molecular Sciences, 2023).

For orientation: stoichiometry N means a count of units in the complex or per binding partner.

The series deals with the molecule itself. Kind of series: AUC; sedimentation velocity, E-TM at DPR 25 (lowest DPR tested) in 5 mM C14SB micelles, 50 mM Tris-HCl pH 7.3, 100 mM NaCl, 29.4% D2O, 20 °C, 50,000 rpm.

B1: transmembrane domain of SARS-2 E corresponding to residues 7–38 (E-TM) (peptide)
chain: EETGTLIVNSVLLFLAFVVFLLVTLAILTALR
notes: SARS-CoV-2 envelope (E) protein, transmembrane domain, residues 7-38; monomer 3490 Da; also called E-TM 7–38
For the protein B1, the “stoichiometry N” value is roughly 3.3.
